Laboratory results: US20140235490A1

Target: Firefly luciferase fragment FFL (265-550) (Photinus pyralis) [luciferase: P08659]
Assay: cell-based or functional assay

Firefly luciferase fragment FFL (1-478), sequence (P08659 1-478): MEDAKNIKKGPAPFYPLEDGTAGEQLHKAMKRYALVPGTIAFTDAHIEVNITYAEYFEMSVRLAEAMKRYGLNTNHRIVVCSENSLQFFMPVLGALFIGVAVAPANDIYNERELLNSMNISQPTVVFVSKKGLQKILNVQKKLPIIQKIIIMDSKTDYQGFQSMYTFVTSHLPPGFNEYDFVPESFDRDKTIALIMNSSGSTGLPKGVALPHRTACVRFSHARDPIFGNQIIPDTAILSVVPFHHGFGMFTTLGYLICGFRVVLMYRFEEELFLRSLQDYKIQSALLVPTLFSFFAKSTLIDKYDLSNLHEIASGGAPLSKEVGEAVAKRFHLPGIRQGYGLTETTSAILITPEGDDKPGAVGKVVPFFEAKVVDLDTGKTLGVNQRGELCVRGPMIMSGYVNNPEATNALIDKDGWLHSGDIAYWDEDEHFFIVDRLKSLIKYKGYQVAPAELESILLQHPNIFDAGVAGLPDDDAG
Firefly luciferase fragment FFL (265-550) (Photinus pyralis) [luciferase: P08659], sequence (P08659 265-550): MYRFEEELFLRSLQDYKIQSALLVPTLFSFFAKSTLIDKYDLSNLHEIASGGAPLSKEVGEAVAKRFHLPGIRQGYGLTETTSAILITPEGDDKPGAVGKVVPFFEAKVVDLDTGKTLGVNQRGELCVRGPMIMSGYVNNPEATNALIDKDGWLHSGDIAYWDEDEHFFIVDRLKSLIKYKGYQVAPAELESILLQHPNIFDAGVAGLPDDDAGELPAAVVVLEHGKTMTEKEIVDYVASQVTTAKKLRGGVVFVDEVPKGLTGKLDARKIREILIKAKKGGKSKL

Firefly luciferase fragment FFL (1-478) (from UniProt P08659 1-478)
luciferase activity after recombination of the fragments: < 4%
